T1: GST-OsEIL1N (Oryza sativa, UniProt Q10M41 1-350)
T1 sequence: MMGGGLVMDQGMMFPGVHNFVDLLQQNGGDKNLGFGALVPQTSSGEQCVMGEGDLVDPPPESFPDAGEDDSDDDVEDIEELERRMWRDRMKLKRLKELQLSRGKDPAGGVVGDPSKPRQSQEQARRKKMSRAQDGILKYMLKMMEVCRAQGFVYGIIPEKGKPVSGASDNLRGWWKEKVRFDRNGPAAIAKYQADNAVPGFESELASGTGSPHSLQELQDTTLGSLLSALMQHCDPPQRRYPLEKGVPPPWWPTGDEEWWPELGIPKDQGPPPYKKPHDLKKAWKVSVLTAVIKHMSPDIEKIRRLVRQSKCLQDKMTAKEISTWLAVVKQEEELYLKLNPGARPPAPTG

B1: OsERF115 probe 1 (EBS1) (dsDNA)
DNA 1: CATAACTTTTCAGTCACATCATCTCCAATTTCAACCAAAATCCAAAC
DNA 2: GTTTGGATTTTGGTTGAAATTGGAGATGATGTGACTGAAAAGTTATG
B2: OsERF115 probe 2 (EBS2) (dsDNA)
DNA 1: ATATGGCTAGAAACATAAATGTAGCTACTTTCTCTGTGCACGA
DNA 2: TCGTGCACAGAGAAAGTAGCTACATTTATGTTTCTAGCCATAT
B3: OsERF115 probe 3 (EBS3) (dsDNA)
DNA 1: GATAGAACTACGTATGCACGGACCGGCTCATCACTAGAGGAG
DNA 2: CTCCTCTAGTGATGAGCCGGTCCGTGCATACGTAGTTCTATC

What follows are binders tested against T1, GST-OsEIL1N (assay: EMSA; EMSA/Gel-Shift Binding Buffer (Beyotime GS005), 30 min at room temperature, 6% native PAGE; salt and pH not stated). Conditions: protein: recombinant; tags: GST (N-terminal, pGEX-4T); label: 5' biotin on strand 1; blunt.

Binding result, binds:
B1
B2
B3

From article PMC9342608, “The OsEIL1‐OsERF115‐target gene regulatory module controls grain size and weight in rice”
